The results in this text go back to publication PMC12525004, “Bacillus subtilis DinG 3′⟶5′ Exo(ribo)nuclease: A Helpmate to Mitigate Replication Stress” (International Journal of Molecular Sciences, 2025).

Substitutions are numbered along the chain they refer to.

Holding throughout (details): protein: recombinant; tags: none stated (pET3a, untagged); label: 5'-32P; single strand
Series [1] deals with T1, DinG D10A E12A (Bacillus subtilis, UniProt P54394 1-931, D10A;E12A).
T1 sequence: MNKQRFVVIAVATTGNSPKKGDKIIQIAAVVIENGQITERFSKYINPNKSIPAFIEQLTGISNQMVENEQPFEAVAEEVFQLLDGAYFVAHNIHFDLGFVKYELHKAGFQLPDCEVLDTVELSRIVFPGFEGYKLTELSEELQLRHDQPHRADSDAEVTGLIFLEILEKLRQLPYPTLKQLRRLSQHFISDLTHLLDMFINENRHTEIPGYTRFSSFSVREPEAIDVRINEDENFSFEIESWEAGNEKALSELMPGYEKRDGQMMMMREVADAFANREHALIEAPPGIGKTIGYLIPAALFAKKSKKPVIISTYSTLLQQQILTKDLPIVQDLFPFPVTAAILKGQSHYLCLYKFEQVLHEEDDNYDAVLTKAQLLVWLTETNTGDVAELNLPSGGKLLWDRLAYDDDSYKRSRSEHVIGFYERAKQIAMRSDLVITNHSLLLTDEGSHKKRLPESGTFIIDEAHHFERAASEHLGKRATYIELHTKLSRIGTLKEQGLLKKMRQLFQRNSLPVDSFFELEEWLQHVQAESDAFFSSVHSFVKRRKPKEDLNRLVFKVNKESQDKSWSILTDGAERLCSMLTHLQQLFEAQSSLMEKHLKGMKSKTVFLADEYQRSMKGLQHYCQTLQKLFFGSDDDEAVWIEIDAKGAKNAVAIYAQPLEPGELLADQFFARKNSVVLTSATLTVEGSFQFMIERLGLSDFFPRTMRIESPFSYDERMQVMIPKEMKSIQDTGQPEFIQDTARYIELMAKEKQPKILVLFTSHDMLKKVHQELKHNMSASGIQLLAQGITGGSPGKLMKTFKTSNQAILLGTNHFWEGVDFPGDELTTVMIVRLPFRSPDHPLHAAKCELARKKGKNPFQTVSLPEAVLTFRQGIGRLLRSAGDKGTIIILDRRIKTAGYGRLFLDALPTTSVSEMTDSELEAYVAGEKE
Briefly: EMSA; 2 mM EDTA, no metal; text names lssDNA38, Methods and Fig S4 legend give lssDNA45; EMSA, buffer D (composition not in material; 3 mM MgCl2, or 2 mM EDTA instead), 0.5 nM DNA, 37 °C, 10 min (text: 5 min), 15% native PAGE in TBE 1X; pH and salt. (In EMSA bound probe runs differently from free probe, usually more slowly.)

Another series deals with T2, DinG K290A (Bacillus subtilis, UniProt P54394 1-931, K290A).
T2 sequence: T1 sequence with A10D, A12E, K290A
As to the kind of experiment: EMSA; 2 mM EDTA, no metal; Kapp; text names lssDNA38, Methods and Fig S4 legend give lssDNA45; EMSA, buffer D (composition not in material; 3 mM MgCl2, or 2 mM EDTA instead), 0.5 nM DNA, 37 °C, 10 min (text: 5 min), 15% native PAGE in TBE 1X; pH and salt.

For series [2], the target named is T1, DinG D10A E12A. As to the kind of experiment: EMSA; 3 mM Mg2+; C1, C2 and well complexes; EMSA, buffer D (composition not in material; 3 mM MgCl2, or 2 mM EDTA instead), 0.5 nM DNA, 37 °C, 10 min (text: 5 min), 15% native PAGE in TBE 1X; pH and salt.

Take GTACGTATTCAAGATACCTCGTACTCTGTACTGACTCGGATCCTA (ssDNA, biotin-T at position 44 (second from 3' end)) [3'-Biotin gamma32P-lssDNA45]: the figures for the binding signal with DinG D10A E12A [1] and with DinG D10A E12A [2] were ~2 fold lower affinity than its Mg2+-bound state and ~37 fold lower affinity than wt DinG, respectively. Moreover, the “apparent K (half saturation)” value in the series with DinG K290A was roughly 1.1 nM.
